According to patent EP4688860A2 (dated 2026):

Biological target: T1, human CD38 on cells (human CD38-overexpressing Jurkat cells); CD38-expressing MM.1R, THP-1 and MM.1S target … (human, UniProt P28907 1-300)
T1 construct: also called CD38+ cells
Assay: summing-up sentence of the examples (cell binding, SPR, CAR format)

Binder	binding result
anti-CD38 scFv of SEQ ID NO:111 (scFv, One of the 12 selected scFvs; Also tested inside a CAR) scFv: EAQLLESGGDLVQPGGSLRLSCAASGFTFSSYAMSWVRQAPGKGLEWVSTISVSGDSTYYADSVKGRFTISRDNSKNTLYLQMNSLRAEDTAVYYCAKALLYQGLRMDVWGKGTTVTVSSGGGGSGGGGSGGGGSDIQMTQSPSSLSASVGDRVTITCRASQGIATWLAWYQQKPEKAPKSLIYAASSLQSGVPSRFSGSGSGTDFTLSISSLQPEDFATYYCQQYNSYPLTFGGGTKVEIK	binds
anti-CD38 scFv of SEQ ID NO:109 (scFv, One of the 12 selected scFvs; Also tested inside a CAR) scFv: EGQLLESGGGLVQPGGSLRLSCAASGFTFSSFAMSWVRQAPGKGLEWVSTISGSGGSTNYADSVKGRFTISRDNSKKTLYLQMSSLRAEDTAVFYCAKGPTSPYSYYMDVWGKGTTVTVSSGGGGSGGGGSGGGGSEIVMTQSPATLSLSPGERATLSCRASQSVSSSFLSWFQQKPGQAPRLLIYGASTRATGIPARFSGSGSGTDFTLTISSLQPEDFAVYYCQQDYNLPYTFGQGTKLEIK	binds
anti-CD38 scFv of SEQ ID NO:108 (scFv, One of the 12 selected fully human scFvs; Also tested inside a CAR (CD8a hinge and transmembrane, OX40, CD3zeta; FLAG tag in Jurkat cells)) scFv: EVQLLESGGGLVQPGGSLRLSCAASGFTFSSYAMTWVRQAPGKGLEWVSAISPSGGSTFYADSVKGRFTISRDNSKNTLYLEMNSLRAEDTAVYYCAKDLDFYGSGSYSSWGKGTTVTVSSGGGGSGGGGSGGGGSEIVMTQSPATLSLSPGERATLSCRASQSVSNSYLSWYQQKPGQAPRLLIFGTSTRATGIPARFSGSGSGTDFTLTISSLQPEDFAVYHCQQDYKLPYTFGQGTKLEIK	binds
anti-CD38 scFv of SEQ ID NO:116 (scFv, One of the 12 selected scFvs; Also tested inside a CAR) scFv: EVQLVESGGGVVRPGGSLRLSCAASGFTFDDYGMSWVRQAPGKGLEWVSGINWNGGSTDYAASVKGRFTISRDNAKNSLYLQMNSLRAEDTALYHCARVFCTNGVCYPYSYYYFMDVWGKGTTVTVSSGGGGSGGGGSGGGGSEIVMTQSPATLSVSPGERATLSCRASQSVSSNLAWYQQKPGQAPRLLTYGASTRATGIPARFSGSGSGTEFTLTISSLQSEDFAVYYCQQYNNWPYTFGQGTRLEIK	binds
anti-CD38 scFv of SEQ ID NO:117 (scFv, One of the 12 selected scFvs; Also tested inside a CAR) scFv: EVQLVESGGGVVRPGGSLRLSCAASGFTFDDYGMSWVRQAPGKGLEWVSGINWNGGSTGYADSVKGRFTISRDNAKNSLYLQMNSLRAEDTAFYHCAREGDGYKGTFYYYYYMDVWGKGTTVTVSSGGGGSGGGGSGGGGSDIQLTQSPSFLSASVGDRVTITCRASQGIFNYLAWYQQKPGKAPNLLIYAASNLQSGVPSRFSGSGSGTEFTLTISSLQPEDFATYYCQQLNSYPLTFGGGTKVEIK	binds
anti-CD38 scFv of SEQ ID NO:119 (scFv, One of the 12 selected scFvs; Also tested inside a CAR) scFv: EVQLLESGGGLVQPGGSLRLSCAASGFTFSNYDMSWVRQAPGKGLEWVSTTSASGGNTYYADSVRGRFTISRDNSKNTLYLQMNSLRAEDTAVYYCAKEGDGYNPFRDHYYYFMDVWGKGTTVTVSSGGGGSGGGGSGGGGSETVMTQSPAALSVSPGERATLSCRASQSVSSNLAWYQQKPGQAPRLLIYGASTRATGIPARFSGSGSGTEFTLTISSLQSEDFAVYYCQQYNNWPPYTFGQGTKLEIK	binds

Now from value to binder:

binding result	Binder
binds	anti-CD38 scFv of SEQ ID NO:110 (scFv, One of the 12 selected scFvs; Also tested inside a CAR) scFv: QVQLVQSGAEVKKPGASVKVSCKASGYTFNRYVISWVRQAPGQGLEWMGWIRAYNGNTNYAQKFQGRVTMTTDTSTSTAYMELRSLRSDDTAVYYCARDSTTGTTEGMDVWGKGTTVTVSSGGGGSGGGGSGGGGSEIVMTQSPATLSLSPGERATLSCRASQSVSSSYLSWYQQKPGQAPRLLIYGASTRATGIPARFSGSGSGTDFTLTISSLQPEDFAVYYCQQDYNLPLTFGGGTKVEIN
binds	anti-CD38 scFv of SEQ ID NO:112 (scFv, One of the 12 selected scFvs; Also tested inside a CAR) scFv: QVQLVQSGAEVKKPGASVKVSCKASGFTFTSYGFSWVRQAPGQGLEWMGWISAYSGNTKYAQKFQGRVTMTTDTSTSTAYMELRSLRSDDTAVYYCAREGGTTGTFYYYYYMDVWGKGTTVTVSSGGGGSGGGGSGGGGSEIVLTQSPDFQSVTPKEKVTITCRASQSIGRSLHWYQQKPDQSPKLLIKYASQSFSGVPSRFSGSGSGTDFTLTINSLEAEDAATYYCLQSSSLPLTFGGGTKVEIK
